What was measured:
[1] = target: phosphopeptides corresponding to ErbB4 intracellular tyrosine sites (human); assay: fluorescence polarisation; saturation binding in solution; rhodamine-labeled peptide fixed at 10 nM, protein titrated 0.002-10 µM (twelve two-fold dilutions); 20 minutes at room temperature in the dark; assay buffer 20 mM HEPES, 100 mM KCl, 0.1% Tween-20, 5 mM DTT, pH 7.8; apparent KD; assay detection threshold of 20 µM
[2] = target: phosphopeptides corresponding to ErbB2 intracellular tyrosine sites (human); assay: as above
[3] = target: phosphopeptides corresponding to ErbB1 intracellular tyrosine sites (human); assay: as above
[4] = target: MET pY1313 phosphopeptide, rhodamine-labelled; assay: fluorescence polarisation; saturation binding in solution: rhodamine peptide fixed at 10 nM, protein titrated 0.002-10 uM, 20 min at room temperature; assay buffer 20 mM HEPES, 100 mM KCl, 0.1% Tween-20, 5 mM DTT, pH 7.8; apparent KD
[5] = target: ErbB1 pY801 phosphopeptide, rhodamine-labelled (human); assay: as above
[6] = target: ErbB4 pY906 phosphopeptide, rhodamine-labelled (human); assay: as above

B1: GRAP2 SH2 domain (domain or fragment)
chain: WFHEGLSRHQAENLLMGKEVGFFIIRASQSSPGDFSISVRHEDDVQHFKVMRDNKGNYFLWTEKFPSLNKLVDYYRTNSISRQKQIFLRDRT
Kd [1]: 1000 nM | Kd [2]: 1000 nM | Kd [3]: 1000 nM

B2: VAV2 SH2 domain (domain or fragment)
chain: WFAGNMERQQTDNLLKSHASGTYLIRERPAEAERFAISIKFNDEVKHIKVVEKDNWIHITEAKKFDSLLELVEYYQCHSLKESFKQLDTTLKYPY
Kd [4]: 17000 nM

B3: TNS3 SH2 domain (domain or fragment)
chain: WYKADISREQAIAMLKDKEPGSFIVRDSHSFRGAYGLAMKVATPPPSVLQLNKKAGDLANELVRHFLIECTPKGVRLKGCSNEPYFGSLTALVCQHSITPLALPCKLLIPE
Kd [5]: 5350 nM | Kd [4]: 5890 nM

B4: SHC3 SH2 domain (domain or fragment)
chain: WYQGEMSRKEAEGLLEKDGDFLVRKSTTNPGSFVLTGMHNGQAKHLLLVDPEGTIRTKDRVFDSISHLINHHLESSLPIVSAGSELCLQQPV
Kd [6]: 540 nM
